# Measurements reported in the nanobody polyreactivity screen of Harvey et al. (2022).
# Test: yeast display, Sf9 membrane polyspecificity reagent, FACS + sequencing; frameworks hold sequencing errors
# In short: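 Polyreactivity labels are assigned by the sorting gate from which each nanobody was recovered. The gates were low and high (top ~1%), set on anti-HA fluorescence for expression and streptavidin fluorescence for reagent binding. Before sorting, galactose-induced (36–48 hours) yeast display cells were stained for 1 hour at 4 °C with 10% biotinylated, detergent-solubilized Sf9 membrane reagent.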
row,Sequence,polyreactivity (PSR sort gate)
1,QVQLVESGGGLVQAGGSLRLSCAASGSTFIYYAMGWYRQAPGKERELVAAITSAGRTNYADSVKGRFTISRDNAKNTVYLQMNSLKPEDTAVYYCAAAYRPRKHHYDYWGQGTQVTVSS,high polyreactivity
2,QVQLVESGGGLVQAGGSLRLSCAASGSTFIYYAMGWYRQAPGKERELVAVITGNGGRTYYADSVKGRFTISRDNAKNTVYLQMNSLKPEDTAVYYCAALYDGIYDSWGQGTQVTVSS,high polyreactivity
3,QVQLVESGGGLVQAGGSLRLSCAASGSTFIYYAMGWYRQAPGKEWELVAAITSAGRTNYADSVKGRFTISLDNAKHTVYLQMNSLKPEDTAVYYCAAAYRPRKHHYDYWGQGTQVTVSS,high polyreactivity
4,QVQLVESGGGLVQAGGSLRLSCAASGSTFIYYTMGWYRQAPGKERELVAAIPSSGGSTYYADSVKGRFTISRDNAKNTVYLQMNSLKPEDTAVYYCAADGTYIKFAKLYRRYDYWGQGTLVTVSS,low polyreactivity
5,QVQLVESGGGLVQAGGSLRLSCAASGSTFKAYAMGLYRPAPGKERELVAAITRRGTSTYYADSVKGRFTISRDNAKNTVYLQMNSLKPEDTAVYYCNAKYVSDRSSAVSFDYWGQGTQVTVSS,low polyreactivity
6,QVQLVESGGGLVQAGGSLRLSCAASGSTFKAYAMGWYRQAPGKERELVAAITRRGTSTYYADSVKGRFTISRDNAKNTVYLQMNSLKPEDTAVYYCNAKYVSDRSSAVSFDYWGQGTQVTVSS,low polyreactivity
7,QVQLVESGGGLVQAGGSLRLSCAASGSTFKFNDMGWYRQAPGKERELVAAISRGGRTNYADSVKGRFTISRDNAKNTVYLQMNSLKPEDTAVYYCAADYSTLYKYDYWGQGTQVTVSS,low polyreactivity
8,QVQLVESGGGLVQAGGSLRLSCAASGSTFKFNTMGWYRQAPGKERELVAAISWRGGSTYYADSVKGRFTISRDNAKNTVYLQMYSLKPEDTAFYYCAAPWYIRYDSWGQGTQVTVSS,high polyreactivity
9,QVQLVESGGGLVQAGGSLRLSCAASGSTFKGYAMGWYRQAPGKERELVAAITWIGGSTTYADSVKGRFTISCDNAKNTVYLQMNSLKPEVTAVYYCAADNFWYFLSATEDYWGQGTQVTVSS,low polyreactivity
10,QVQLVESGGGLVQAGGSLRLSCAASGSTFKHNTMGWYRQAPGKERELVAAITSSGGTYYADSVKGRFTISRDNAKNTVYLQMNSLKPEDTAVYYCAARVTYRGRAYDYWGQGTQVTVSS,high polyreactivity
11,QVQLVESGGGLVQAGGSLRLSCAASGSTFKIYAMGWYRQAPGKERELVARITGRGGSTYYADSVKGRFTISRDNAKNTVYLQMNSLKPEDTAVYYCAARTYYVPYYYWGQGTQVTVSS,high polyreactivity
12,QVQLVESGGGLVQAGGSLRLSCAASGSTFKLNAMGWYRQAPGKERELLASISTGASTNYADSVKGRFTISLDNAKNTVYVQMNSLNPEDTAVYYCAAQYPFAGYYITQYEYDYWGQGTQVTVSS,low polyreactivity
13,QVQLVESGGGLVQAGGSLRLSCAASGSTFKPNAMGSYRQAPGKEREFVASITWSAGSTYYADSVKGRFTISRDNAKNTVYLQMNSLKPEDTAVYYCAARLRWAGISRYGYWGQGTQVTVSS,high polyreactivity
14,QVQLVESGGGLVQAGGSLRLSCAASGSTFKQYAMGWYRQAPGKERELVAAISTIGGSTYYADSVKGRFTISRDNAKITVYLQMNSLKPEDTAVYYCAAEYWYIWPYNYWGLGTQVTVSS,high polyreactivity
15,QVQLVESGGGLVQAGGSLRLSCAASGSTFKRYAKGWYRQAPGKERELVAAITLSGGNTYYADSVKGRFTISRDNAKNTVYLQMNSLKPEDTAVYYCAARRYRGYDYWGQGTQVTVSS,high polyreactivity
16,QVQLVESGGGLVQAGGSLRLSCAASGSTFKRYAMGWYRQAPGKERELVAAINRSGTSTYADSVKGRFTISRDNAKNTVYLQMNSLKPEDSAVYYCARYYAYLRVKYDYWGQGTQVTVSS,high polyreactivity
17,QVQLVESGGGLVQAGGSLRLSCAASGSTFKSNAMGWYRQAPGKERELVAAINRSGAGTYYADSVKGRFTISRDNAKHTVYLQLNSLKPEDTAVYYCAAQSYSRRYDYWGQGTQVTVSS,high polyreactivity
18,QVQLVESGGGLVQAGGSLRLSCAASGSTFKSYTMGWYRPAPGKERELVAAISGSGGRTYYADSVKGRFTISRDNAKNTVYLQMNSLKPEDTAVYYCAATGPYGFYWGQGTQVTVSS,high polyreactivity
19,QVQLVESGGGLVQAGGSLRLSCAASGSTFKSYVMGWYRAAPGKERELVAAISTGDSTYYADSVKGRFTISRDNAKNTVYLQMNSLKPEDTAVYYCAADPGYTVEPWEDDYWGQGTQVTVSS,low polyreactivity
20,QVQLVESGGGLVQAGGSLRLSCAASGSTFKSYVMGWYRQAPGKERELVAAISSGDSTYYADSVKGRFTISRDNAKNTVYLQMNSLKPEDTAVYYCAADPGYTVEPWEDDDWGQGTQVTVSS,low polyreactivity
21,QVQLVESGGGLVQAGGSLRLSCAASGSTFKSYVMGWYRQAPGKERELVAAISSGDSTYYADSVKGRFTISRDNAKNTVYLQMNSLKPEDTAVYYCNADVSLDDYDYWGQGTQVTVSS,low polyreactivity
22,QVQLVESGGGLVQAGGSLRLSCAASGSTFKVYAMGWYRQAPGKERELVAVISGGGRTNYADSVKGRFTISRDNAKNTVYLQMNSLKPEDTAVYYCAAQATYHRYYTYYYWGQGTKVTVSS,high polyreactivity

row,Sequence,polyreactivity (PSR sort gate)
1,QVQLVESGGGLVQAGGSLRLSCAASGSTFKWNAMGWYRQAPGKERELVAAISKGSVNTYYADSVKGRFTISRDNAKNTVYLQMNSLKPEDTAVYYCAADRRYPALDYWGQGTQVTVSS,high polyreactivity
2,QVQLVESGGGLVQAGGSLRLSCAASGSTFKWYAMGWYRQAPGKERELVATISSGGSTNYADSVKGRFTISRDNAKNTVYLQMNSLKPEDTAVYYCAAANFKWGQGTQVTVTS,low polyreactivity
3,QVQLVESGGGLVQAGGSLRLSCAASGSTFKYNAMGWYRQAPGKERELVASISRSGGSTYYADSVKGRFTISRDNAKNTVYLQMNSLKPEDTAVYYCNVRRFVHYEYWGQGTQVTVSS,high polyreactivity
4,QVQLVESGGGLVQAGGSLRLSCAASGSTFKYNAMGWYRQAPGKERELVATISGTGGSTYYADSVKGRFTISRDNAKNTVYLQMNSLKPEDTAVYYCAARWGRSQLRYYYWGQGTQVTVSS,high polyreactivity
5,QVQLVESGGGLVQAGGSLRLSCAASGSTFKYYVMGWYRQAPGKERELVAAITRSGSTNYADSVKGRFTISRDNAKNTVYLQMNSLKPEDTAVYYCAAERALSRYGYWGQGTQVTVSS,low polyreactivity
6,QVQLVESGGGLVQAGGSLRLSCAASGSTFLAYAMGWYRQAPGKERELVAAISSRGSRTYYADSVKGRFTISRDNAKNTVYLQMNSLKPEDTAVYYCATPYSRSYSYRYDYWGQGTQVTVSS,high polyreactivity
7,QVQLVESGGGLVQAGGSLRLSCAASGSTFLGNAMGWYRQAPGKERELVATITGSSGSTYYADSVKGRFTISRDNAKNTVYLQMNSLKPEDTAVYYCNTVYNYWDGYDYWGQGTQVTVSS,low polyreactivity
8,QVQLVESGGGLVQAGGSLRLSCAASGSTFLGNAMGWYSQAPGKERELVASISWSGGSTSYADSVKGRFTISRDIAKNTVYLLMNSLKPEDTAVYYCAVDWRYTGRTYYGMESWGQGTQVTVSS,low polyreactivity
9,QVQLVESGGGLVQAGGSLRLSCAASGSTFLHYAMGWYRQAPGKERELVAAISFSGVRTYYADSVKGRFTISRDNAKNTVYLQLNSLKPEDNAVYYCDADGHHADYDYLGQGTQVTVSS,low polyreactivity
10,QVQLVESGGGLVQAGGSLRLSCAASGSTFLINAMGWYRQAPGKEREFVAAITSSGGTTYYADSVKGRFTISRDNAKNTVYLQMNSLKPEDTAVYYCAAVSRSRREKKFDYWGQGTQVTVSS,low polyreactivity
11,QVQLVESGGGLVQAGGSLRLSCAASGSTFLINAMGWYRQAPGKERELVAAITGRGGSTYYADSVKGRFTISRDNAKNTVYLQMNSLKPEDTAVYYCNAERLGTGYRYDYWGQGTQVTVSS,high polyreactivity
12,QVQLVESGGGLVQAGGSLRLSCAASGSTFLKNAMGWYRQAPGKERELVAAISYSTTRTYYAVSVKGRFTISRDNAKNTVYLQINSLKPEDTAVYYCAARYDRSSKRNYWGQGTQVTVSS,low polyreactivity
13,QVQLVESGGGLVQAGGSLRLSCAASGSTFLKYAMGWYRQAPGKERELVAAISRSGTSTYYADSVKGRFTISRDNAKNTVYLQMNSLKPEDTAVYYCAARWIRSNTQYDYWGQGTQVTVSS,high polyreactivity
14,QVQLVESGGGLVQAGGSLRLSCAASGSTFLNYAMGWYRQAPGKERELVAAISGRGGRTYYADSVKGRFTISRDNAKNTVYLQMNSLKPEDTAFYYCAARIWVSYTSYDYWGQGTQVTVSS,high polyreactivity
15,QVQLVESGGGLVQAGGSLRLSCAASGSTFLNYAMGWYRQAPGKERELVAAISGRGGRTYYADSVKGRFTISRDNAKNTVYLQMNSLTPEDTAVYYCAARKWVSYTSYDYWGQGTQVTVSS,high polyreactivity
16,QVQLVESGGGLVQAGGSLRLSCAASGSTFLQNAMGWYRQAPGKEREFVAAISYTGANTYYADSVKGRFTISRDNAKNTVYLQMNSLKPEDTAVYYCAAYARGVRRYRRYDYWGQGTQVTVSS,high polyreactivity
17,QVQLVESGGGLVQAGGSLRLSCAASGSTFLQNAMGWYRQAPGKERELVAAISRSGGSTYYADSVKGRFTISRDNAKNTVYLQMNSLKPEDTAVYYCAAGGRRYDDDYWGQGTQVTVSS,high polyreactivity
18,QVQLVESGGGLVQAGGSLRLSCAASGSTFLRYAMGWYRPAPGKERELVAAISWSGGTTYYADSVKGRFTISRDNAKNTVYLQMNSLKPEDTAVYYCNTASWRAQYYYWGQGTQVTVSS,high polyreactivity
19,QVQLVESGGGLVQAGGSLRLSCAASGSTFLRYAMGWYRQAPGKERELVAGIRYSGGTYYADSVKGRFTISRDNAKNTVYLQMNSLKPEDTAVYYCAAYWKLGGFRYGYWGQGTQVTVSS,high polyreactivity
20,QVQLVESGGGLVQAGGSLRLSCAASGSTFLSNAMGWYRQAPGKERELVASIDWSGVSTYYADSVKGRFTISRDNAKNTVYLQMNSLNPEDTAVYYCAAEQVQSWDAYYQVEEYDYWGQGTQVTVSS,low polyreactivity
21,QVQLVESGGGLVQAGGSLRLSCAASGSTFLSYAMGWYRQAPGKERELVAAITSGGRTYYADSVKGRFTISRDNAKNTVYLQMNSLKPEDTAVYYCAAVTGRFGYWGQGTQVTVSS,high polyreactivity
